Assay results from patent US20030087395A1, “Cardiotrophin-like cytokine” (Human Genome Sciences, Inc., priority 1997, published 2003).

How the values were obtained:
Assay type in all cases: cell-based
[1] = tested on: primary neuronal cultures (sympathetic neuron counts); assay: Neuron counts in primary neuronal cultures
Experimental: (§1) Primary cardiomyocytes, primary neuronal cultures, or other cells are plated at a low density and cultured using standard culturing techniques. […] Cultures are evaluated at a point between 48 and 72 hours post-treatment by counting the number of cells in four non-overlapping fields in three independent cultures and averaging the results.

GAS element in M1 cells [2] = assay: GAS/SEAP reporter assay in M1 cells; conditions: GAS/SEAP construct in M1 cells; supernatants from 293T cells transfected with CLC expression construct
Source text: (§2) The sequence of the 5' primer is: [NT] ID NO:16). […] The sequence of the 3' primer is: [NT] ID NO:17). […] Separate the Optiplates to avoid uneven heating. […] An increase in chemiluminescence indicates reporter activity.

[3] = tested on: GAS element in TF-1 cells; assay: GAS/SEAP reporter assay in TF-1 cells; conditions: GAS/SEAP construct in TF-1 cells; supernatants from 293T cells transfected with CLC expression construct
Source text: as §2

GAS element in M1 cells [4] = assay: SEAP reporter assay, SRE experiment repeated in M1 cells; conditions: M1 cells replacing TF-1 cells, supernatants from 293T cells transfected with CLC expression vector
Source text: (§3) Therefore, activation of the Jaks-STATs pathway, reflected by the binding of the GAS or the ISRE element, can be used to indicate proteins involved in the proliferation and differentiation of cells. For example, growth factors and cytokines are known to activate the Jaks-STATs pathway (see Table below). Thus, by using GAS elements linked to reporter molecules, activators of the Jaks-STATs pathway can be identified. Serum response elements (SREs) play a similar role in signal transduction although the DNA sequence which mediates a serum response is unique from the GAS or ISRE sequences.
(§4) Other constructs can be made using the above description and replacing GAS with a different promoter sequence. For example, construction of reporter molecules containing NF-kB and EGR promoter sequences are described in Examples 6 and 8. However, many other promoters can be substituted using the protocols described in these Examples. For instance, SRE, IL-2, NFAT, or Osteocalcin promoters can be substituted, alone or in combination (e.g., GAS/NF-κB/EGR, GAS/NF-κB, Il-2/NFAT, or NF-κB/GAS). Similarly, other cell lines can be used to test reporter construct activity, such as HeLa (epithelial), HUVEC (endothelial), Reh (B-cell), Saos-2 (osteoblast), HUVAC (aortic) or cardiomyocyte.
(§5) Separate the Optiplates to avoid uneven heating.
(§6) An increase in chemiluminescence indicates reporter activity.

Primary cardiomyocytes = assay: Cardiac myocyte hypertrophy, cell counts in culture
Experimental: as §1

M1 cells [5] = assay: M1 cell proliferation by BrdU incorporation; conditions: dose of 100 μL, 72 hours
Experimental: The effect of CLC on cellular proliferation can be assayed in M1 cells by BrdU incorporation. 1×10^4 cells/100 μL are dispensed into 96-well cell culture plates and labeled with 10 μL BrdU. CLC is added to the cells at several doses (0, 5, 25, and 100 μL) and LIF is added to the cells as a positive control at a dose of 100 μL. The cells are allowed to grow for 72 hours at 37° C. The amount of BrdU incorporation is determined by the Cell Proliferation ELISA BrdU colorimetric kit (Boehringer Mannheim).

[6] = tested on: SRE element in TF-1 cells; assay: SRE/SEAP reporter assay in TF-1 cells; conditions: supernatants from 293T cells transfected with CLC expression vector, SEAP reporter
Source text: as §3, §4, §5, §6

M1 cells [7] = assay: Protein tyrosine phosphorylation after anti-gp130 immunoprecipitation; conditions: M1 cells treated with CLC or LIF supernatant; band of apparent molecular mass 32 kDa
Experimental: Because of the wide range of known factors capable of stimulating tyrosine kinase activity, identifying whether CLC or a molecule induced by CLC is capable of activating tyrosine kinase signal transduction pathways is of interest. Therefore, the following protocol is designed to identify such molecules capable of activating the tyrosine kinase signal transduction pathways.
Seed NIH-3T3 cells in 15 cm^2 cell culture plates in DMEM supplemented with Pen/Strep, 10% FBS, 25 mM Hepes. […] At the point the experiment begins, the cells should be 80-90% confluent. Collect M1 cells in 50 ml tube and centrifuge 1000 rpm for 5 min. Resuspend the cell pellet in “quiescing medium” which is RPMI supplemented with Pen/Strep, glutamine. (It is important to note that quiescing medium contains neither serum nor growth factors.) Centrifuge again at 1000 rpm for 5 min to wash the cells. Again, resuspend the cells in quiescing medium. Incubate the M1 cells in quiescing medium for 16 hours at 37° C.
Pre-warm quiescing medium (for Ml cells) and a metal tube rack to 37° C. Pre-cool quiescing media (for NIH-3T3 cells) and sterile Eppendorf tubes containing 0.5 ml of sample. […] Resuspend M1 cells to 5.0×10^7 cells per 0.5 ml quiescing media. Place all tubes on per warmed metal rack and leave at 37° C. until ready to begin. Add samples to these pre-aliquoted tubes. […]

[8] = counted 48 to 72 hours post-treatment, four fields in three independent cultures, averaged

B1: CLC: human polypeptide named cardiotrophin-like cytokine, IL-6 cytokine family member; tested as supernatant of transfected 293T cells (protein)
chain: MDLRAGDSWGMLACLCTVLWHLPAVPALNRTGDPGPGPSIQKTYDLTRYLEHQLRSLAGTYLNYLGPPFNEPDFNPPRLGAETLPRATVDLEVWRSLNDKLRLTQNYEAYSHLLCYLRGLNRQAATAELRRSLAHFCTSLQGLLGSIAGVMAALGYPLPQPLPGTEPTWTPGPAHSDFLQKMDDFWLLKELQTWLWRSAKDFNRLKKKMQPPAAAVTLHLGAHGF
modifications: homo sapiens; signal (-27)..(-1)
notes: human polypeptide named cardiotrophin-like cytokine, IL-6 cytokine family member; tested as supernatant of transfected 293T cells
No. Neurons [1, 8]: 86 | change of sympathetic neuron counts ([1]; samples treated with CLC-transfected supernatants): clear increase | induction of the GAS element (GAS element in M1 cells [2]): 4.5 fold | activation of the GAS element [3]: 4.6 fold | induction of the GAS element (SRE experiment repeated) (GAS element in M1 cells [4]): 3.2 fold | No. Active Myocytes (Primary cardiomyocytes; [8]): 50 | reduction of cardiomyocyte hypertrophic activity of mock-transfected 293T supernatant (Primary cardiomyocytes; supernatants from CLC-transfected 293T cells, 48 to 72 hours post-treatment): 2 fold | inhibition of M1 cell proliferation with respect to the negative control (M1 cells [5]): 3.1 fold | activation of the SRE element over the negative control level [6]: 2.6 fold | band of tyrosine-phosphorylated protein in cell extracts (M1 cells [7]): produced a band of phosphorylated protein
